Tests used:
[1] = test system: Zymoseptoria tritici (SEPTTR-184); experiment: Efficacy of target gene fragments (MgCytB dsRNA tiles) on wheat plants, SEPTTR-184; assay type: in vivo; parameters: Average of 2 trials SEPTTR-184 3DC / Average of 2 trials SEPTTR-184 1DP: scale not given here
Protocol: The 200 ppm rate for each treatment was prepared by adding the calculated volume of the corresponding dsRNA solution in TE buffer. Lower rates were prepared as 4-fold dilutions (50 ppm, 12.5 ppm, and 3.12 ppm). A non-target dsRNA control (YFP), a TE/phosphate buffer control, disease pressure control, and clean plant control were included.
(§1) These plants were inoculated with an aqueous spore suspension of Zymoseptoria tritici either prior to or after fungicidal treatments. After inoculation the plants were kept in 100% relative humidity to allow spores to germinate and infect the leaves. The plants were then transferred to a greenhouse until disease developed.

[2] = test system: Zymoseptoria tritici (SEPTTR) US-184; experiment: CytB dsRNA foliar application bioassay on wheat seedlings, SEPTTR US-184; assay type: in vivo; details: compared to the non-treated control; strain not given
Protocol: RNAi (dsRNA) fungicidal solutions were prepared in TE buffer (pH 8.0), which were then mixed with 9 volumes of phosphate buffer (pH 7.5) containing 0.1% Triton X-100. The fungicidal solutions were applied to wheat seedlings using an automated booth sprayer to run-off. All sprayed plants were allowed to air dry prior to further handling.
The following served as controls: 1% silwet in phosphate buffer control, disease pressure control (untreated), and clean plant control (negative control).
as §1

B1: MgCytB-T3: 116 bp dsRNA of Zymoseptoria CytB region 3, location 279-394 (SEQ ID NO:6) (nucleic acid, listed as Zymoseptoria tritici)
chain: TTACCTGCACGTGGGTAGAGGGTTATACTACGGGTCATACAAAGCCCCTAGAACATTAACATGAACAATCGGTACTATAATACTAGTTCTGATGATGGCAACCGCATTCTTAGGGT
modifications: long dsRNA, chemistry not given here, further chemistry not given here
ED50 SEPTTR-184 1DP ([1]; 1DP (preventative)): <3.125 ppm
ED80 SEPTTR-184 1DP ([1]; 1DP (preventative)): >200 ppm
Disease Control All Rates Average SEPTTR-184 1DP ([1]; 1DP (preventative), average of 200, 50, 12.5, 3.125 ppm): 68%
Sum of Disease Control SEPTTR-184 1DP ([1]; 1DP (preventative), sum over 200, 50, 12.5, 3.125 ppm): 271%
ED50 SEPTTR-184 3DC ([1]; 3DC (curative)): <3.125 ppm
ED80 SEPTTR-184 3DC ([1]; 3DC (curative)): <3.125 ppm
Disease Control All Rates Average SEPTTR-184 3DC ([1]; 3DC (curative), average of 200, 50, 12.5, 3.125 ppm): 84%
Sum of Disease Control SEPTTR-184 3DC ([1]; 3DC (curative), sum over 200, 50, 12.5, 3.125 ppm): 334%
Average of 2 trials SEPTTR-184 1DP ([1]; 3.125 ppm, 1DP (preventative)): 59
Average of 2 trials SEPTTR-184 3DC ([1]; 3.125 ppm, 3DC (curative)): 84
Average of 2 trials SEPTTR-184 1DP ([1]; 12.5 ppm, 1DP (preventative)): 64
Average of 2 trials SEPTTR-184 3DC ([1]; 12.5 ppm, 3DC (curative)): 84
Average of 2 trials SEPTTR-184 1DP ([1]; 50 ppm, 1DP (preventative)): 74
Average of 2 trials SEPTTR-184 3DC ([1]; 50 ppm, 3DC (curative)): 81
Average of 2 trials SEPTTR-184 1DP ([1]; 200 ppm, 1DP (preventative)): 74
Average of 2 trials SEPTTR-184 3DC ([1]; 200 ppm, 3DC (curative)): 84
level of control, ranking among fragments ([1]; in vivo): best level of control
control of Septoria leaf blotch on wheat seedlings [2]: observed to control Septoria leaf blotch

Source: US10392620B2, “Cytochrome B (CYTB) nucleic acid molecules that control pathogens” (Dow AgroSciences LLC, priority 2016, dated 2019)
